From patent US20260232827A1 (Zymeworks, published 2026)

T1: human sodium-dependent phosphate transporter 2B (NaPi2b) (human, UniProt O95436 1-690)
T1 construct: UniProt ID is given as 095436 [sic]; also called hNaPi2b; Hu NaPi2b
T1 sequence: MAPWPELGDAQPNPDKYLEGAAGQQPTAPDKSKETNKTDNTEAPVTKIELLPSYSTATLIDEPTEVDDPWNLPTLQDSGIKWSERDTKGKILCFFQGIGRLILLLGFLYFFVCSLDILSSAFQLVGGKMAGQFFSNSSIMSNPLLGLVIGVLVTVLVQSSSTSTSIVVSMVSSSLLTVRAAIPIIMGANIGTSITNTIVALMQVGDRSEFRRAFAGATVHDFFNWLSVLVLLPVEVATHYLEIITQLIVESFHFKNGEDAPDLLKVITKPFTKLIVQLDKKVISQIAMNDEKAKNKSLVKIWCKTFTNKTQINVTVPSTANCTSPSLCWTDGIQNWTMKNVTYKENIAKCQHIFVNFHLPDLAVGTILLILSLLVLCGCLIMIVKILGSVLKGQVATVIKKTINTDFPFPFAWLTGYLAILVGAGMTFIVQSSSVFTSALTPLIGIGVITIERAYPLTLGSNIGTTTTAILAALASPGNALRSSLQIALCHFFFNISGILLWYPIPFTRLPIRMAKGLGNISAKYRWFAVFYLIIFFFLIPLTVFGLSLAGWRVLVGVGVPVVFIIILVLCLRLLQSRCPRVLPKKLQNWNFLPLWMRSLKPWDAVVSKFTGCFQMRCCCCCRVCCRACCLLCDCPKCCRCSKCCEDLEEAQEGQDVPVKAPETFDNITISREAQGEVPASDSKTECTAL

T2: cynomolgus monkey NaPi2b (cynomolgus monkey, UniProt O95436 1-690 (human entry))
T2 construct: also called Cyno NaPi2b; Cy NaPi2b
T2 chain: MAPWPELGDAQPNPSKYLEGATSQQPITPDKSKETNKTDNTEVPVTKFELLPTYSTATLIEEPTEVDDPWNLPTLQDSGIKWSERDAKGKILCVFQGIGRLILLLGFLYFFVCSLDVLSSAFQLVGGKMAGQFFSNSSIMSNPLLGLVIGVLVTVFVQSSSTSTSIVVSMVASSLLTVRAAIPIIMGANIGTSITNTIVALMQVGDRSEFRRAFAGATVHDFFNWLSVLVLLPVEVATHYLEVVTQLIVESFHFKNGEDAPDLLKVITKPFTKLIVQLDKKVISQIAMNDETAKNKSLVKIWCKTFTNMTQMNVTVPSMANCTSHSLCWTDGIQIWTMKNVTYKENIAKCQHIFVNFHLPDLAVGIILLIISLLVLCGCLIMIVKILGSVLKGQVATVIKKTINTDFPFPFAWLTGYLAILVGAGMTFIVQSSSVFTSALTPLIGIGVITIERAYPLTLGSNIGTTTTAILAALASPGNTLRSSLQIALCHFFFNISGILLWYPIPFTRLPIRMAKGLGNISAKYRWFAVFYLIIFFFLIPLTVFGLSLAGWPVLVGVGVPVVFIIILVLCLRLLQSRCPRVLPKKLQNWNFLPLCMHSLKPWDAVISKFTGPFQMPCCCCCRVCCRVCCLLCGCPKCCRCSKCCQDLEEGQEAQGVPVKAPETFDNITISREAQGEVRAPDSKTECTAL

T3: mouse NaPi2b (mouse, UniProt Q9DBP0 1-697)
T3 construct: also called Ms NaPi2b; CL #13476
T3 sequence: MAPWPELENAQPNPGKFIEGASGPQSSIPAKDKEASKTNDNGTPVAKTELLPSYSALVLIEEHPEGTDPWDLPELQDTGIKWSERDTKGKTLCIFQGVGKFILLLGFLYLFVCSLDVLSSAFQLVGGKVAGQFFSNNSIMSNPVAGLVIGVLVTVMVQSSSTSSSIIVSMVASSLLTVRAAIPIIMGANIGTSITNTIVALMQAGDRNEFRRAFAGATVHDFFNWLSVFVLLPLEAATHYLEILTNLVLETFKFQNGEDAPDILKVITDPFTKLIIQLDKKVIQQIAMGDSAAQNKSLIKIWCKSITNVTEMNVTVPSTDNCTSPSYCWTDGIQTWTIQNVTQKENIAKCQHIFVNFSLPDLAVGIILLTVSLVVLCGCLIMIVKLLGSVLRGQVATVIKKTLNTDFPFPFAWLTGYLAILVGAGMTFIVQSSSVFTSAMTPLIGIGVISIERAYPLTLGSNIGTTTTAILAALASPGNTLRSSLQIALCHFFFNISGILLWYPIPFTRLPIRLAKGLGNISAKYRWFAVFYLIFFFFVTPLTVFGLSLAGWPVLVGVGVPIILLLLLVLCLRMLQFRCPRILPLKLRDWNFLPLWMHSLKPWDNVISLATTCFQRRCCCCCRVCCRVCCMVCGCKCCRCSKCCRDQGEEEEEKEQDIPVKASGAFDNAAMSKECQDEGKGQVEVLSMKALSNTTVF


Key:
[1] = molecular target: T1, human sodium-dependent phosphate …; assay: flow cytometry on IGROV-1 cells (endogenous NaPi2b), 24 h at 4 C, anti-human IgG Fc AF647
Description: (§1) Briefly, cells were seeded at 50,000 cells/well in conical-bottom 96-well plates and treated with test antibody for 24 hours at 4° C. to prevent internalization. […] Following incubation and washing, fluorescence was detected by flow cytometry on a BD LSRFortessa™ Cell Analyzer (BD Biosciences, Franklin Lake, NJ) with 1,000 minimum events collected per well.

[2] = molecular target: T1, human sodium-dependent phosphate …; assay: flow cytometry, IGROV-1 cells (endogenous NaPi2b); parameters: unit not given here
[3] = molecular target: T1, human sodium-dependent phosphate …; assay: flow cytometry, IGROV-1 cells (endogenous NaPi2b); apparent Kd
Description: as §1

[4] = molecular target: T4, KLH (Sigma-Aldrich, H8283); assay: non-specific ELISA, KLH coated, antibody 100 nM
T4 construct: Coating of the non-specific ELISA
Description: NS-ELISA was used to measure the propensity of the antibodies to bind to a range of biomolecules to emulate the undesirable non-specific interactions to biological matrices in vivo as described below.
NS-ELISA was carried out in Corning® 96-well EIA/RIA Easy Wash™ Clear Flat Bottom Polystyrene High Bind Microplate coated overnight at 4° C. with 50 μL of Heparin (Sigma, H3149) diluted with 50 mM sodium carbonate pH 9.6 to a final concentration of 250 μg/mL. The plate was incubated for 2 days at room temperature, wells that were coated with heparin were not covered to allow air dry. […] 50 μL each of insulin, KLH, dsDNA and ssDNA were added to a 96 well plate, followed by the incubation at 37° C. for 2 h. The coating materials were removed, and the plate was blocked with 200 μL of Gibco™ PBS pH7.4, 0.1% Tween®20, and incubated for 1 h at room temperature with shaking at 200 rpm. The plate was washed 3 times with Gibco™ PBS pH7.4, 0.1% Tween 20. 50 μL of each mAb at 100 nM (15 mg/mL) in Gibco™ PBS pH 7.4, 0.1% Tween®20 was added in duplicate to the wells and incubated for 1 h at room temperature with shaking at 200 rpm. […] Plates were incubated for 1 h at room temperature, with shaking at 200 rpm. The plate was washed three times with Gibco™ PBS pH7.4, 0.1% Tween 20, and 100 μL of TMB substrate (Cell Signaling Technology©, 7004P6) added to each well. […] Binding scores were calculated as the ratio of the ELISA signal of the antibody to the signal of a well containing buffer instead of the primary antibody.

[5] = molecular target: T1, human sodium-dependent phosphate …; assay: flow cytometry on IGROV-1 cells (endogenous NaPi2b), 24 h at 4 C, anti-human IgG Fc AF647; remark: listed apart in the source
Description: (§2) Following incubation and washing, fluorescence was detected by flow cytometry on a BD LSRFortessa™ Cell Analyzer (BD Biosciences, Franklin Lake, NJ) with 1,000 minimum events collected per well.

[6] = molecular target: T1, human sodium-dependent phosphate …; assay: flow cytometry on OVCAR-3 cells (endogenous NaPi2b), 24 h at 4 C, anti-human IgG Fc AF647
Description: as §2

cynomolgus monkey NaPi2b = molecular target: T2, cynomolgus monkey NaPi2b; assay: flow cytometry on HEK293-6e cells transfected with cynomolgus monkey NaPi2b, 24 h at 4 C, anti-human IgG Fc AF647
Description: (§3) Following transfection, cells were seeded at 50,000 cells/well in conical-bottom 96-well plates and treated with test antibody or antibody-drug conjugate for 24 hours at 4° C. to prevent internalization. […] Following incubation and washing, fluorescence was detected by flow cytometry on a BD LSRFortessa™ Cell Analyzer (BD Biosciences, Franklin Lake, NJ) with 1,000 minimum events collected per well.

mouse NaPi2b = molecular target: T3, mouse NaPi2b; assay: flow cytometry on HEK293-6e cells transfected with mouse NaPi2b, 24 h at 4 C, anti-human IgG Fc AF647
Description: as §3

[7] = molecular target: T1, human sodium-dependent phosphate …; assay: flow cytometry on H441 cells (endogenous NaPi2b), 24 h at 4 C, anti-human IgG Fc AF647, APC-A GeoMean
Description: (§4) Cells were maintained under standard culture conditions (37° C./5% CO₂) until assay set-up. […] Cells were removed from culture vessels using Cell Dissociation Buffer (Invitrogen, Waltham, MA), seeded at 50,000 cells/well in conical-bottom 96-well plates, and treated with test antibody or antibody-drug conjugate for 24 hours at 4° C. to prevent internalization. […] Following incubation and washing, fluorescence was detected by flow cytometry on a BD LSRFortessa™ Cell Analyzer (BD Biosciences, Franklin Lake, NJ) with 1,000 minimum events collected per well.

[8] = molecular target: T1, human sodium-dependent phosphate …; assay: flow cytometry on IGROV-1 cells (endogenous NaPi2b), 24 h at 4 C, anti-human IgG Fc AF647, APC-A GeoMean
Description: as §4

[9] = molecular target: T1, human sodium-dependent phosphate …; assay: flow cytometry on HCC-78 cells (endogenous NaPi2b), 24 h at 4 C, anti-human IgG Fc AF647, APC-A GeoMean
Description: as §4

Row | Binder | EC50 (read off the curve) [1] [nM] | Bmax [2] | Kd [3] [nM] | NS-ELISA binding score (signal over buffer well) [4] | EC50 (read off the curve) [5] [nM] | EC50 (read off the curve) [6] [nM] | EC50 (read off the curve) (cynomolgus monkey NaPi2b) [nM] | EC50 (read off the curve) (mouse NaPi2b) [nM] | EC50 (read off the curve) [7] [nM] | EC50 (read off the curve) [8] [nM] | EC50 (read off the curve) [9] [nM]
1 | v23855 (parental mouse-human chimeric anti-NaPi2b antibody) (antibody, human IgG1, kappa, V domains shown, IgG1/kappa full-size antibody; also called parental chimeric) VH: QAYLQQSGAELVRPGASVKMSCKASGFTFTSYNVHWVKQTPRQGLEWIAAISPGNGDLSYNQRFKDKATLTVDRSSSTAYMQLSGLTSEDSAVYFCARGRTGMGAVDYWGQGTSVTVSS VL: DVQMTQTASSLSASLGDRVTISCRASQDVYSYLNWYQQKPHGTVKLLIYYTSRLQSGVPSRFTGSGSGTDYSLTISNLEPEDIATYYCQQYNIFPWTFGGGTKLEIKR | ~0.8 | 43700 | 0.84 | 2.38 |  |  |  |  |  |  | 
2 | v18992 (MX35)-DL2 (antibody, human IgG1, kappa, as above; maleimide functionalized auristatin drug linker (DL2); sites and DAR not stated, also called MX35-DL2 ADC) heavy 1: GQVQLVQSGAEVVKPGASVKMSCKASGYTFTGYNIHWVKQAPGQGLEWIGAIYPGNGDTSYKQKFRGRATLTADTSTSTVYMELSSLRSEDSAVYYCARGETARATFAYWGQGTLVTVSSASTKGPSVFPLAPSSKSTSGGTAALGCLVKDYFPEPVTVSWNSGALTSGVHTFPAVLQSSGLYSLSSVVTVPSSSLGTQTYICNVNHKPSNTKVDKKVEPKSCDKTHTCPPCPAPELLGGPSVFLFPPKPKDTLMISRTPEVTCVVVDVSHEDPEVKFNWYVDGVEVHNAKTKPREEQYNSTYRVVSVLTVLHQDWLNGKEYKCKVSNKALPAPIEKTISKAKGQPREPQVYVYPPSRDELTKNQVSLTCLVKGFYPSDIAVEWESNGQPENNYKTTPPVLDSDGSFALVSKLTVDKSRWQQGNVFSCSVMHEALHNHYTQKSLSLSPG heavy 2: not shown light: GDIQMTQSPSSLSASVGDRVTITCSASQDIGNFLNWYQQKPGKTVKVLIYYTSSLYSGVPSRFSGSGSGTDYTLTISSLQPEDFATYYCQQYSKLPLTFGQGTKLELKRTVAAPSVFIFPPSDEQLKSGTASVVCLLNNFYPREAKVQWKVDNALQSGNSQESVTEQDSKDSTYSLSSTLTLSKADYEKHKVYACEVTHQGLSSPVTKSFNRGEC | 1 to 1.7 | 41200 | 1.22 |  |  |  |  |  |  |  | 
3 | v38591-MC-GGFG-AM-Compound 139 DAR 8 (antibody, human IgG1, kappa, as above; MC-GGFG-AM-Compound 139 drug-linker on cysteines freed by TCEP reduction; sites not stated; DAR 8, Antibody-drug conjugate of v38591; also called v38593) heavy: not shown light: DVQMTQSPSSLSASVGDRVTITCRASQDVYSYLNWYQQKPGKAVKLLIYYTSRLQSGVPSRFSGSGSGTDYTLTISSLQPEDFATYYCQQYNIFPWTFGQGTKLEIKRTVAAPSVFIFPPSDEQLKSGTASVVCLLNNFYPREAKVQWKVDNALQSGNSQESVTEQDSKDSTYSLSSTLTLSKADYEKHKVYACEVTHQGLSSPVTKSFNRGEC |  |  |  |  | ~2 | ~3 | ~0.5 | ~0.6 |  |  | 
4 | v38591-MC-GGFG-AM-Compound 139 DAR 4 (antibody, human IgG1, kappa, as above; MC-GGFG-AM-Compound 139 drug-linker on cysteines freed by TCEP reduction; sites not stated; DAR 4, Antibody-drug conjugate of v38591) heavy: not shown light: DVQMTQSPSSLSASVGDRVTITCRASQDVYSYLNWYQQKPGKAVKLLIYYTSRLQSGVPSRFSGSGSGTDYTLTISSLQPEDFATYYCQQYNIFPWTFGQGTKLEIKRTVAAPSVFIFPPSDEQLKSGTASVVCLLNNFYPREAKVQWKVDNALQSGNSQESVTEQDSKDSTYSLSSTLTLSKADYEKHKVYACEVTHQGLSSPVTKSFNRGEC |  |  |  |  | ~2 | 2 to 3 | ~0.4 |  | ~0.6 | ~2 | ~3
